Source: patent publication US20140294828A1 (COMPLIX, published 2014)
Residue numbers refer to the chain shown, from its start.

T1: bL4_C36 (biotin-GSGS-C36-NH2, HIV-1 HXB2 Env gp41 HR2 peptide) (HIV-1 (HXB2 strain), N-terminal biotin; C-terminal amide)
T1 construct: also called C-peptide
T1 peptide: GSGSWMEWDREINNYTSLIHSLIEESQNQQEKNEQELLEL

B1: single-chain Alphabody scAB_Env03 (designed binder)
chain: MGHHHHHHHHHHSSGHIEGRHMSIEEIQKPIATIQEAIAWIQKKIYMMTGGSGGGSGGGSGGGSGMSIEEIQKQIAAIQKQIAAIQKQIYAMTGGSGGGSGGGSGGGSGMSIEEIQKQIVAIMEQIVAIVKQISAMTP
notes: expressed soluble in E. coli with an N-terminal His10 tag; not shown: N-terminal 10-histidine tag from pET16b
B2: single-chain Alphabody scAB_Env05 (designed binder)
chain: B1 chain with P30H, T33S, A37Y, K44E, M47R, V120L, V127Y, S134N
notes: Soluble construct with N-terminal His10 tag (pET16b)
B3: single-chain Alphabody scAB_Env02 (designed binder)
chain: B1 chain with T33S, A37L, W40T, K44Y, M47I, V120Q, M123T, V127I, V130S, S134I
notes: as for B2
B4: single-chain Alphabody scAB_Env03_KC (designed binder)
chain: B1 chain with K80C
modifications: Interchain disulfide between Cys80 of chain 1 and Cys80 of chain 2 (homodimer; paragraph 268, and FIG.11 prints 'scAB_Env03_KC (dimer)').
notes: also called Env03 Cys-mutant
B5: single-chain Alphabody scAB_Env03_PA (designed binder)
chain: B1 chain with P30A
notes: Made by the same protocol as the parent (N-terminal His10 tag); The substitution has no printed number
B6: single-chain Alphabody scAB_Env04 (designed binder)
chain: MGHHHHHHHHHHSSGHIEGRHMSIEEIQKPIATIQETIAWIQKTIYGMTGGSGGGSGMSIEEIQKQIAAIQKQIAAIQKQIYAMTGGSGGGSGGGSGGGSGMSIEEIQKQIRAIFEQIVAICKQIIAMTP
notes: as for B2

Tests used:
[1] = target: T1, bL4_C36 (biotin-GSGS-C36-NH2, HIV-1 …); test: SPR, bL4_C36 immobilized on a streptavidin sensor chip, Alphabody injected at 250 to 7.8 nM, Langmuir model (phase 1)
[2] = target: T1, bL4_C36 (biotin-GSGS-C36-NH2, HIV-1 …); test: ELISA, peptide on neutravidin-coated plate, Penta-His-HRP detection
[3] = target: T1, bL4_C36 (biotin-GSGS-C36-NH2, HIV-1 …); test: SPR, bL4_C36 on streptavidin chip, Langmuir model
[4] = target: T1, bL4_C36 (biotin-GSGS-C36-NH2, HIV-1 …); test: ELISA, bL4_C36 immobilized on neutravidin-coated plates, detection with Penta-His-HRP antibody, A450nm
[5] = target: T1, bL4_C36 (biotin-GSGS-C36-NH2, HIV-1 …); test: SPR, bL4_C36 on streptavidin chip; disulfide dimer, bidentate binding
[6] = target: T1, bL4_C36 (biotin-GSGS-C36-NH2, HIV-1 …); test: SPR, bL4_C36 immobilized on a streptavidin sensor chip, two-step kinetic binding model, global constant of phases 1+2 (KD1*KD2)
[7] = target: T1, bL4_C36 (biotin-GSGS-C36-NH2, HIV-1 …); test: SPR, bL4_C36 immobilized on a streptavidin sensor chip, two-step kinetic binding model, phase 2 (dimensionless)
[8] = target: T1, bL4_C36 (biotin-GSGS-C36-NH2, HIV-1 …); test: SPR, two-step model, first fast association phase
[9] = target: T1, bL4_C36 (biotin-GSGS-C36-NH2, HIV-1 …); test: SPR, two-step model, global KD
[10] = target: T1, bL4_C36 (biotin-GSGS-C36-NH2, HIV-1 …); test: SPR, two-step model, second phase
[11] = target: T1, bL4_C36 (biotin-GSGS-C36-NH2, HIV-1 …); test: SPR, bL4_C36 immobilized on a streptavidin sensor chip, two-step kinetic binding model, phase 1

Binder | Kd [1] [nM] | Kd [3] [nM] | EC50 (read off the curve) [4] [nM] | koff [1] [s⁻¹] | kon [1] [M⁻¹ s⁻¹] | further results
B1 | 211 | 200 | ~5 | – | – | EC50 [2]: ~6 nM
B2 | 3930 | 4000 | ~40 | 0.32 | 81000 | –
B3 | – | – | ~20 | – | – | –
B4 | – | – | – | – | – | Kd [5]: 0.62 nM; koff [5]: 2.4e-05 s⁻¹; kon [5]: 38000 M⁻¹ s⁻¹
B5 | – | – | – | – | – | Kd [6]: 13 nM; KD (phase 2) [7]: 0.024 (-); kon [8]: ~100000 M⁻¹ s⁻¹; Kd [9]: ~10 nM; koff [10]: ~0.0001 s⁻¹; KD (phase 1) [11]: 558 nM
B6 | 167 | 200 | ~20 | 0.1 | 570000 | –
